Results published in the supplement of paper PMC10126150.
± gives the standard deviation of the averaged measurements.

Tested on: ATP
Assay: switch fluorescence ratio, 500 uM ATP over buffer (Cy3 cluster intensity, sum of 5 cycles each) (fold (ratio)); higher = stronger signal-on switching upon ATP binding; sequences stand for … in TCGTCGGCAGCGTCAGATGTGTATAAGAGACAGTTTTTTTTTTTTTTTTTTTTTTTTT…TC
Details: aptamer strand: ATP DNA aptamer (quencher-CACCTGGGGGAGTATTGCGGAGGAAGG + anchor), 100 nM annealed; ATP concentration: 500 uM
Outline: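 After annealing to 100 nM quencher-labelled ATP aptamer, Cy3-labelled switching-strand clusters on a modified Illumina MiSeq flow-cell were imaged in selection buffer. A second image followed after 15 min with 500 uM ATP at 22 °C, and five such buffer/ATP cycles were done, each separated by NaOH stripping and re-annealing. The fluorescence ratio, averaged per switch-domain sequence, is summed target-cycle over summed buffer-cycle Cy3 intensity per cluster, with clusters outside 100-1000 RFU excluded.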
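Note: ATP exposure 15 min at 22 °C before imaging.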

Sequence	switch fluorescence ratio
ATATCAAAAT	1.01 ± 0.013
ATATCAATGT	1 ± 0.028
ATATCAGTTC	1.012 ± 0.0091
ATATCATCGG	0.964 ± 0.025
ATATCCTCCC	1.35 ± 0.016
ATATCGCTGA	0.987 ± 0.013
ATATCGGAGG	0.99 ± 0.041
ATATCGGATG	1.071 ± 0.0078
ATATCGTTGA	0.978 ± 0.021
ATATCTCCGG	1.07 ± 0.014
ATATGAAAGT	0.977 ± 0.024
ATATGAATGA	1.01 ± 0.015
ATATGATAGA	0.9921 ± 0.0026
ATATGCATAG	1.05 ± 0.051
ATATGCTATC	1.02 ± 0.014
ATATGCTGGT	0.982 ± 0.014
ATATGCTGTA	0.989 ± 0.032
ATATGGAAAT	1.006 ± 0.0027
ATATGGAGTT	0.943 ± 0.022
ATATGGGTGG	1.01 ± 0.016
ATATGGTATT	0.99 ± 0.023
ATATGTATGA	1.003 ± 0.0037
ATATGTCAGA	0.9958 ± 0.0056

Sequence	switch fluorescence ratio
ATATGTCGCT	1.01 ± 0.026
ATATGTGGTG	1.02 ± 0.028
ATATGTTTGG	1.01 ± 0.018
ATATTACGGG	1.03 ± 0.039
ATATTAGGCA	1.01 ± 0.037
ATATTATTAC	1.06 ± 0.016
ATATTATTGT	0.9911 ± 0.0085
ATATTCCACA	0.9984 ± 0.0093
ATATTCTTGT	1.009 ± 0.0095
ATATTCTTTT	1.03 ± 0.091
ATATTGACGG	1.09 ± 0.12
ATATTGAGAT	0.998 ± 0.037
ATATTGAGGG	1.01 ± 0.00033
ATATTGCGTT	1.01 ± 0.02
ATATTGGATT	0.994 ± 0.018
ATATTGGGGC	0.993 ± 0.017
ATATTGGTTA	0.9923 ± 0.0052
ATATTGGTTT	0.997 ± 0.011
ATATTGTTGG	0.972 ± 0.031
ATATTGTTTT	1.02 ± 0.019
ATATTTACGG	1.079 ± 0.0071
ATATTTCATT	0.961 ± 0.012
ATATTTCCTA	0.989 ± 0.033

Sequence	switch fluorescence ratio
ATATTTGTTT	0.993 ± 0.022
ATATTTTGAC	1.05 ± 0.061
ATATTTTTTA	0.9761 ± 0.0095
ATATTTTTTG	0.978 ± 0.024
ATCAAACGAG	1.006 ± 0.0073
ATCAAACTCG	0.979 ± 0.029
ATCAAAGAAC	1.05 ± 0.042
ATCAACTTAT	1.02 ± 0.044
ATCAAGGATG	1.03 ± 0.038
ATCAATGTGC	0.962 ± 0.088
ATCAATTGTT	0.989 ± 0.015
ATCACAAATA	1.02 ± 0.024
ATCACAGCTA	1.04 ± 0.017
ATCACTCTTT	1.02 ± 0.058
ATCAGAGTGC	1.03 ± 0.06
ATCAGCGATC	2.24 ± 0.22
ATCAGCGTTT	1.012 ± 0.0092
ATCAGGATCG	1.01 ± 0.014
ATCAGGGCGT	0.987 ± 0.032
ATCAGGGGGA	0.997 ± 0.02
ATCAGTTAAT	0.996 ± 0.032
ATCAGTTTGG	1.01 ± 0.015
ATCATAGGAT	1.0329 ± 0.00082

Sequence	switch fluorescence ratio
ATCATATATC	0.983 ± 0.089
ATCATGCGCT	0.9964 ± 0.0092
ATCATGCGGC	0.983 ± 0.014
ATCATGGAGG	0.993 ± 0.017
ATCATGGCGG	0.99 ± 0.017
ATCATTAGAA	0.976 ± 0.031
ATCATTATAT	0.99007 ± 0.00051
ATCATTATTG	1 ± 0.013
ATCCCCATGG	1.91 ± 0.051
ATCCCCGGCC	1.03 ± 0.022
ATCCGAGATG	1.034 ± 0.0074
ATCCGGGTTC	1 ± 0.015
ATCCGTTTTG	0.986 ± 0.02
ATCCTACAGC	1.1 ± 0.025
ATCCTATTGT	1.03 ± 0.036
ATCCTCGATT	0.964 ± 0.0095
ATCCTGCAGT	1.15 ± 0.031
ATCGAAGAGG	0.995 ± 0.048
ATCGAAGGGG	0.981 ± 0.065
ATCGAATAGC	1.02 ± 0.034
ATCGACGGGG	1.01 ± 0.01
ATCGACGTTT	1.03 ± 0.055
ATCGATATAT	0.991 ± 0.036

Sequence	switch fluorescence ratio
ATCGATCTGG	1 ± 0.015
ATCGCAGCTC	1.62 ± 0.017
ATCGCAGGCG	1.035 ± 0.0068
ATCGCATGTC	1.23 ± 0.094
ATCGCCATCC	1.235 ± 0.0026
ATCGCCTTGC	1.163 ± 0.001
ATCGCGTTGG	0.983 ± 0.027
ATCGGAAACT	1.03 ± 0.039
ATCGGAAGAA	1.01 ± 0.017
ATCGGAAGCG	1.03 ± 0.011
ATCGGAATGG	1.05 ± 0.024
ATCGGACTTG	0.977 ± 0.033
ATCGGAGGTC	0.978 ± 0.037
ATCGGAGTAT	0.996 ± 0.034
ATCGGATTTT	1.17 ± 0.22
ATCGGCGTAT	1.01 ± 0.012
ATCGGGAATG	1.019 ± 0.0018
ATCGGGACGG	0.9829 ± 0.0029
ATCGGGAGAG	1.05 ± 0.026
ATCGGGAGGA	1 ± 0.029
ATCGGGGGGA	0.986 ± 0.034
ATCGGGGGGG	1 ± 0.035
ATCGGGGTAG	0.9985 ± 0.0038

Sequence	switch fluorescence ratio
ATCGGGGTGC	1.03 ± 0.016
ATCGGTGGTG	0.9839 ± 0.0058
ATCGTAAGGG	0.983 ± 0.038
ATCGTAATTT	0.971 ± 0.062
ATCGTCAGAA	0.969 ± 0.0068
ATCGTCGTGC	0.975 ± 0.015
ATCGTGAGGC	1.05 ± 0.022
ATCGTGTG	1.01 ± 0.038
ATCGTGTTTG	0.952 ± 0.043
ATCGTTCGGC	0.976 ± 0.037
ATCGTTCTGC	1.1 ± 0.019
ATCGTTTATT	0.99436 ± 0.00033
ATCGTTTTTT	0.973 ± 0.018
ATCTAAGTTC	1.01 ± 0.017
ATCTAGCGGA	1.02 ± 0.022
ATCTAGGCAG	0.9915 ± 0.0043
ATCTATCCAC	1.09 ± 0.037
ATCTATCTTG	0.9777 ± 0.0012
ATCTATGCTT	0.989 ± 0.023
ATCTATGGGT	0.987 ± 0.01
ATCTATTAGC	0.9896 ± 0.009
ATCTATTGGG	0.991 ± 0.0066
ATCTATTGTG	0.974 ± 0.013

Sequence	switch fluorescence ratio
ATCTCGGATT	0.9869 ± 0.0041
ATCTCGGCCG	0.9864 ± 0.0012
ATCTCGGGCT	0.973 ± 0.042
ATCTGAATTG	0.988 ± 0.013
ATCTGCGCGC	0.992 ± 0.011
ATCTGGGGGA	0.979 ± 0.046
ATCTGGGGTG	1.02 ± 0.03
ATCTGTACGA	1.02 ± 0.027
ATCTGTGATA	0.977 ± 0.048
ATCTGTGATG	0.987 ± 0.024
ATCTGTTTTG	1.02 ± 0.049
ATCTTAAGAT	0.984 ± 0.066
ATCTTAAGTA	0.9977 ± 0.0091
ATCTTAGGGT	0.978 ± 0.039
ATCTTAGGTT	1.03 ± 0.096
ATCTTCAACT	1.052 ± 0.01
ATCTTCCCCC	1.55 ± 0.016
ATCTTGGCAG	0.968 ± 0.034
ATCTTGGTTG	1 ± 0.026
